Key:
K562 cells = assay: Cytotoxicity of Stage 3 iNK cells by CFSE/7AAD assay; type: cell-based; settings: added to Stage 3 medium (IL-10 20 ng/mL, IL-18 50 ng/mL), E:T 3:1, 4 hr, FIG. 13A
Experimental: hiPSCs were prepared as described in CN108373998B. On Day −1, Embryoid body (EB) formation (Stage 1-1) was carried out by placing individualized hiPSCs in E8 medium containing 10 μM Blebbistatin in T25 flasks on a bellydancer and culture overnight. On Day 0, lateral mesoderm differentiation (Stage 1-2) was initiated by changing the medium to a Stage 1-2 differentiation medium comprising IF-4 basal medium and supplemented with BMP4 (25 ng/mL), VEGF (15 ng/ml), bFGF (0.5 ng/mL) and CHIR99021 (4 μM) for 2 days. On Day 2, lateral mesoderm differentiation (Stage 1-3) continued for 1 day in a Stage 1-3 differentiation medium comprising IF-4 basal medium and supplemented with BMP4 (25 ng/mL), VEGF (50 ng/mL) and bFGF (0.5 ng/mL) and CHIR99021 (1 μM). On Day 3, HE specification (Stage 1-4) was initiated by adding a Stage 1-4 differentiation medium comprising IF-4 basal medium and supplemented with VEGF (15 ng/ml), bFGF (5 ng/ml), XAV939 (5 μM) for 1 day. […] On Day 11 of co-culture, iNK cells were collected and stained with CD56-PE antibody (BD, #555516), the percentage of CD56+ cells was analyzed by flow cytometry. The cytotoxicity of Stage 3 iNK cells towards K562 cells was detected by CFSE/7AAD assay after 4 hr co-culture at E:T of 3:1.

iNK cells = assay: Stage 3 expansion of iNK cells co-cultured with feeder cells; type: cell-based, human; settings: IL-18 (10-50 ng/mL) combined with IL-2 (100 IU/mL) vs IL-2 only, Stage 3, 2 weeks, FIG. 13B
Experimental: hiPSCs were prepared as described in CN108373998B. On Day −1, Embryoid body (EB) formation (Stage 1-1) was carried out by placing individualized hiPSCs in E8 medium containing 10 μM Blebbistatin in T25 flasks on a bellydancer and culture overnight. On Day 0, lateral mesoderm differentiation (Stage 1-2) was initiated by changing the medium to a Stage 1-2 differentiation medium comprising IF-4 basal medium and supplemented with BMP4 (25 ng/ml), VEGF (15 ng/ml), bFGF (0.5 ng/ml) and CHIR99021 (4 μM) for 2 days. On Day 2, lateral mesoderm differentiation (Stage 1-3) continued for 1 day in a Stage 1-3 differentiation medium comprising IF-4 basal medium and supplemented with BMP4 (25 ng/ml), VEGF (15 ng/mL) and bFGF (0.5 ng/mL) and CHIR99021 (1 μM). On Day 3, HE specification (Stage 1-4) was initiated by adding a Stage 1-4 differentiation medium comprising IF-4 basal medium and supplemented with VEGF (15 ng/ml), bFGF (5 ng/ml), XAV939 (5 μM) for 1 day. On Day 4 (the end of Stage 1-4), HP differentiation (Stage 1-5) in was initiated by adding a Stage 1-5 differentiation medium comprising IF-4 basal medium and supplemented with SCF (10 ng/ml), Flt3L (10 ng/ml), VEGF (15 ng/ml) and bFGF (5 ng/mL). […] On Day 14 of co-culture, iNK cells were collected and stained with CD56-PE antibody (BD, #555516), and the percentage of CD56+ cells was analyzed by flow cytometry. […]

IL-18: interleukin added to Stage 3 expansion and maturation medium
cytotoxicity of iNK cells (K562 cells): significantly improve | expansion fold of iNK cells (iNK cells): improve the expansion fold
